Measured values taken from patent publication US20220259289A1 (Janssen / Centocor, published 2022).
Numbering of substitutions follows the chain as printed.

B1: ISOP193ER9P1A11 (designed binder, not shown: small tags and cut ends)
chain: LPAPKNLVVSRVTEDSARLSWTAPDAAFDSFAIQYQEYVAHGEAIVLTVPGSERSYDLTGLKPGTEYHVRISGVKGGGVSWPLSAIFTT
B2: ISOP193ER9P1E4 (designed binder, not shown: small tags and cut ends)
chain: B1 chain with Q34I, A40K, H41S, S72G, G78L, V79L, W81L
B3: ISOP193ER9P1B5 (designed binder, not shown: small tags and cut ends)
chain: B1 chain with F87V
B4: ISOP193ER9P1A8 (designed binder, not shown: small tags and cut ends)
chain: LPAPKNLVVSRVTEDSARLSWTAPDAAFDSLDIYYFEHPVGGEAIVLTVPGSERSYDLTGLKPGTEYLVTIYGVKGGYLSMPLSAIFTT
B5: ISOP193FR9P1D5 (designed binder, not shown: small tags and cut ends)
chain: LPAPKNLVVSRVTEDSARLSWTAPDAAFDSFYIRYIEDVDFGEAIVLTVPGSERSYDLTGLKPGTEYLVTIYGVKGCDWSDPLSAIFTT
B6: ISOP193ER9P1H11 (designed binder, not shown: small tags and cut ends)
chain: B4 chain with L31F, T70A, Y78V, L79F, M81H
B7: ISOP193FR9P1C1 (designed binder, not shown: small tags and cut ends)
chain: B5 chain with Y32E, R34Y, I36F, D38N, V39E, D40N, F41G
B8: ISOP193FR9P1E10 (designed binder, not shown: small tags and cut ends)
chain: B5 chain with A23T, Y32H, R34H, I36L, D38G, V39E, D40W, F41G
B9: ISOP193HR9P1C8 (designed binder, not shown: small tags and cut ends)
chain: B4 chain with L31F, D32E, H38L, P39R, V40L, Y78G, L79Y, M81T
B10: ISOP193FR9P1H6 (designed binder, not shown: small tags and cut ends)
chain: B5 chain with Y32D, R34N, I36F, D38Q, V39P, D40K, F41G
B11: ISOP193FR9P1G7 (designed binder, not shown: small tags and cut ends)
chain: B5 chain with Y32H, R34H, I36L, D38G, V39E, D40W, F41G
B12: ISOP193ER9P1C8 (designed binder, not shown: small tags and cut ends)
chain: B4 chain with L31F, Y78T, L79Y, M81L
B13: ISOP193HR9P1A6 (designed binder, not shown: small tags and cut ends)
chain: B5 chain with Y32D, R34Y, I36Y, D38L, V39R, D40L, F41G, T70S, D78G, W79Y
B14: ISOP193FR9P1A5 (designed binder, not shown: small tags and cut ends)
chain: B5 chain with Y32E, R34Y, D38P, V39I, D40A, F41P, L68W
B15: ISOP193FR9P1G8 (designed binder, not shown: small tags and cut ends)
chain: B5 chain with Y32E, R34Y, I36F, D38N, V39E, D40L, F41G
B16: ISOP193HR9P1A7 (designed binder, not shown: small tags and cut ends)
chain: B4 chain with L31F, F36Y, H38L, P39R, V40L, G76V, G77C, Y78N, L79A, M81T
B17: ISOP193ER9P1F7 (designed binder, not shown: small tags and cut ends)
chain: B4 chain with R18H, L31F
B18: ISOP193FR9P1H9 (designed binder, not shown: small tags and cut ends)
chain: LPAPKNLVVSRVTEDSARLSWTAPDAAFDSFEIYYDELRNPGEAIVLTVPGSERSYDLTGLKPGTEYAVTIYGVKGGRYSPPLSAIFTT
B19: ISOP193FR9P1C9 (designed binder, not shown: small tags and cut ends)
chain: B5 chain with Y32Q, R34Y, I36F, D38W, D40V, F41G
B20: ISOP193HR9P1A5 (designed binder, not shown: small tags and cut ends)
chain: B18 chain with E32D, D36Y, N40L, P41G, A68L, G77C, R78G, P81A, F87V
B21: ISOP193ER9P1E8 (designed binder, not shown: small tags and cut ends)
chain: B4 chain with L31F, Y78E, M81K
B22: ISOP193FR9P1F8 (designed binder, not shown: small tags and cut ends)
chain: B5 chain with Y32D, R34N, I36F, D38N, V39E, D40L, F41G
B23: ISOP193FR9P1G9 (designed binder, not shown: small tags and cut ends)
chain: B5 chain with V8F, Y32Q, R34Y, I36R, D38Q, V39W, D40W, F41D
B24: ISOP193FR9P1G4 (designed binder, not shown: small tags and cut ends)
chain: B5 chain with Y32E, R34Y, I36F, D38N, V39E, D40L, F41G, C77G
B25: ISOP193FR9P1G11 (designed binder, not shown: small tags and cut ends)
chain: B5 chain with Y32T, R34Y, I36F, D38N, V39E, D40N, F41G
B26: ISOP193FR9P1C5 (designed binder, not shown: small tags and cut ends)
chain: B5 chain with Y32H, R34Y, I36L, D38Q, V39Y, D40S, F41R
B27: ISOP193FR9P1D7 (designed binder, not shown: small tags and cut ends)
chain: B5 chain with Y32E, R34Y, I36A, D38Y, V39F, D40K, F41N, F87S
B28: ISOP193BR9P1B10 (designed binder, not shown: small tags and cut ends)
chain: LPAPKNLVVSRVTEDSARLSWAWNRHDFDSFLIQYQESEKVGEAIVLTVPGSERSYDLTGLKPGTEYTVSIYGVHWTVLRPFIDSNPLSAIFTT
B29: ISOP193ER9P1H2 (designed binder, not shown: small tags and cut ends)
chain: LPAPKNLVVSRVTEDSARLSWTAPDAAFDSFRISYLEDVYYGEAIVLTVPGSERSYDLTGLKPGTEYHVGIHGVKGGIDSFPLSAIFTT
B30: ISOP193GR9P1A7 (designed binder, not shown: small tags and cut ends)
chain: LPAPKNLVVSRVTEDSARLSWTAPDAAFDSFAIFYHEFANPGEAIDLPVPGSERSYDLTGLKPGTEYDVRIYGVKGGTASIPLDAEFTT

Columns and labels:
[1] = target: T1, human serum albumin (human, UniProt P02768 25-609); test: ELISA, negative control HSA
T1 construct: Negative control of the ELISA; also called HSA
T1 sequence (P02768 25-609 limits assumed): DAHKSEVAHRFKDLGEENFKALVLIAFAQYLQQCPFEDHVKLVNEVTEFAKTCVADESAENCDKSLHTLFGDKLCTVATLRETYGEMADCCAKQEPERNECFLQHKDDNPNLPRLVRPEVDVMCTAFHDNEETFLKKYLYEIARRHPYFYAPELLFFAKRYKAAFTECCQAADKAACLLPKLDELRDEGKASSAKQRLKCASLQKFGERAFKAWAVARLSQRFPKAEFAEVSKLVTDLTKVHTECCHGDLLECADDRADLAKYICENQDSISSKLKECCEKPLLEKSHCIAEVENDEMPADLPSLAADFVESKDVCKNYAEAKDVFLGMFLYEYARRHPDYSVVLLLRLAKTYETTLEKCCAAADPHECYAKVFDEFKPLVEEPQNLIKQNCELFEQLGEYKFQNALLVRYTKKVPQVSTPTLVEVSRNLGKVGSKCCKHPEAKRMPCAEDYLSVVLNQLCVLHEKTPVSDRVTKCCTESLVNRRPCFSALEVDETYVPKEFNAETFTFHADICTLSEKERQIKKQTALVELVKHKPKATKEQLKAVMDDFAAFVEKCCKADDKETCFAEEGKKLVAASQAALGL
Procedure, shortened: (§1)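 Biotinylated CD137-Fc, an unrelated Fc-fusion protein or human serum albumin captured 1 h on streptavidin plates blocked in Starting Block T20; diluted bacterial lysate applied 1 h. Bound binders detected with HRP-conjugated anti-Centyrin antibody (PAB25) for 1 h, then POD substrate read-out.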

[2] = target: T2, recombinant biotinylated CD137 protein (Fc-fusion protein, R&D Systems 838-4B) (human, UniProt Q07011 24-186, biotinylated, sites not stated); test: ELISA, lysate on biotinylated CD137-Fc
T2 construct: Bought Fc fusion; also called CD137-Fc
Procedure, shortened: as §1

[3] = target: unrelated Fc-fused recombinant protein; test: ELISA, negative control Fc protein
[4] = target: extracellular domain of human CD137 on the surface of CHO-K1 cells (human, UniProt Q07011 24-186); test: flow cytometry on CHO-K1 cells with human CD137 ECD
Description: Cell surface binding was analyzed via flow cytometry. Cenyrins were prepared at a maximal concentration of 500 nM in the presence of 125 nM anti His-mIgG1 antibody and then serially diluted in PBS/1% FCS buffer. Samples were then applied to approx 100 000 CHO-Kl cells expressing the extracellular domain of human CD137 on their surface. Unbound Centyrin/Antibody complexes were washed away and bound FN3 domains were detected by the addition of goat anti mouse-FITC labeled antibody. Samples were then aquired by flow cytometry. Subsequently, Mean flurescence intensity was plotted against the log Centyrin concentration and EC50 values were calculated by nonlinear regression using GraphPad Prism.

[5] = target: human serum albumin (human) (UniProt P02768); test: ELISA, negative control HSA
human serum albumin (human), sequence (P02768 25-609 limits assumed): as above

Row | Binder | ELISA HSA (RLU) [1] [RLU] | ELISA CD137 (RLU) [2] [RLU] | ELISA Fc Control (RLU) [3] [RLU] | EC50 [4] [nM] | ELISA HSA (RLU) [5] [RLU]
1 | B1 | 640 | 1.28e+07 | 1200 | 10.6 | 
2 | B2 | 480 | 1.26e+07 | 1680 | 279 | 
3 | B3 | 400 | 1.27e+07 | 1200 | 7.34 | 
4 | B4 | 400 | 1.43e+07 | 1440 | 17 | 
5 | B5 |  | 6.05e+06 | 51700 |  | 10800
6 | B6 | 640 | 2.08e+06 | 1360 | 184 | 
7 | B7 |  | 1.41e+07 | 36800 |  | 8160
8 | B8 |  | 2.05e+06 | 133000 |  | 31000
9 | B9 | 560 | 1.82e+07 | 1360 | 3.27 | 
10 | B10 |  | 1.12e+07 | 88300 |  | 23000
11 | B11 |  | 5.5e+06 | 42300 |  | 11000
12 | B12 | 400 | 1.67e+07 | 1040 | 12.4 | 
13 | B13 |  | 1.46e+07 | 25000 |  | 5120
14 | B14 |  | 9.07e+06 | 95100 |  | 26200
15 | B15 |  | 1.45e+07 | 25100 |  | 5040
16 | B16 |  | 1.48e+07 | 48900 |  | 12600
17 | B17 | 480 | 1.51e+07 | 1200 | 25 | 
18 | B18 | 800 | 2.42e+06 | 2000 | 72.8 | 
19 | B19 |  | 1.23e+07 | 21000 |  | 4000
20 | B20 |  | 1.49e+07 | 6080 |  | 2080
21 | B21 | 480 | 1.64e+07 | 880 | 17.7 | 
22 | B22 |  | 8.57e+06 | 25700 |  | 5040
23 | B23 |  | 1.28e+07 | 33600 |  | 6800
24 | B24 | 640 | 1.4e+07 | 1840 | 26.9 | 
25 | B25 |  | 1.08e+07 | 60600 |  | 11000
26 | B26 |  | 8.66e+06 | 79300 |  | 19200
27 | B27 |  | 2.2e+06 | 15000 |  | 2640
28 | B28 | 1200 | 9.73e+06 | 2640 | 134 | 
29 | B29 | 560 | 5.18e+06 | 1360 | 27.5 | 
30 | B30 | 480 | 2.15e+06 | 1040 | 606 | 
